According to patent US11278600B2, “Human alpha-galactosidase variants” (Codexis, Inc., priority 2014, dated 2022):
Residue numbers refer to the chain shown, from its start.

B1: 666 (protein)
chain: LDNGLARTPTMGWLHWERFMCNLDCQEEPDSCISEKLFMEMAERMVTEGWKDAGYEYLCIDDCWMAPQRDSEGRLQADPQRFPHGIRQLANHVHSKGLKLGIYADVGNKTCAGFPGSFGYYDIDAQTFADWGVDLLKFDGCYCDSLENLADGYKHMSLALNRTGRPIVYSCEWPLYMWPFQKPNYTEIRQYCNHWRNFADIDDSWASIKSILDWTSRNQERIVDVAGLGGWNDPDMLVIGNFGLSWDQQVTQMALWAIMAAPLFMSNDLRAISPQAKALLQDKDVIAINQDPLGKQGYQLRKGDNFEVWERPLSGDAWAVAIINRQEIGGPRSYTIPVASLGKGVACNPACFITQLLPVKRQLGFYNWTSRLKSHINPTGTVLLQLENTMQTSLKDLL
modifications: Synthetic Polypeptide sequence of Variant No. 666 of mature Human GLA
B2: 669 (protein)
chain: B1 chain with L228P, P262S
modifications: Synthetic Polypeptide sequence of Variant No. 669 of mature Human GLA
B3: 668 (protein)
chain: B1 chain with M39E, L228P
modifications: Synthetic Polypeptide sequence of Variant No. 668 of mature Human GLA
B4: 667 (protein)
chain: B1 chain with D30G, L228P
modifications: Synthetic Polypeptide sequence of Variant No. 667 of mature Human GLA
B5: 670 (protein)
chain: B1 chain with L228P, N305L
modifications: Synthetic Polypeptide sequence of Variant No. 670 of mature Human GLA
B6: 639 (protein)
chain: B1 chain with M39E, L228P, D247Y
modifications: Synthetic Polypeptide sequence of Variant No. 639 of mature Human GLA

Test: HTP-analysis of yeast culture supernatants, no challenge (MUGal hydrolysis)
Format: biochemical
Conditions: activity of the variant/activity of Rd7BB (SEQ ID NO: 44)
Method in brief: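 GLA variants expressed in yeast INVSc1, secreted into SD-Ura broth over 66-84 h at 30° C; clarified supernatants tested without challenge. Supernatant mixed with McIlvaine buffer pH 4.8 and 2 mM MUGal (citrate/KCl, pH 4.6), 37° C for 30-180 min, carbonate-quenched, fluorescence Ex 355/Em 448 nm.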
For B1, the “Relative Activity of GLA Variants After No Challenge (NC)” value was “+ (>0.5 to 1.5 relative activity over Rd7BB (SEQ ID NO: 44))”.
For B2, the “Relative Activity of GLA Variants After No Challenge (NC)” value was “+ (>0.5 to 1.5 relative activity over Rd7BB (SEQ ID NO: 44))”.
In the case of B3, the “Relative Activity of GLA Variants After No Challenge (NC)” value is reported as “+ (>0.5 to 1.5 relative activity over Rd7BB (SEQ ID NO: 44))”.
With B4 the “Relative Activity of GLA Variants After No Challenge (NC)” value was “+ (>0.5 to 1.5 relative activity over Rd7BB (SEQ ID NO: 44))”.
In the case of B5, the “Relative Activity of GLA Variants After No Challenge (NC)” value is reported as “+ (>0.5 to 1.5 relative activity over Rd7BB (SEQ ID NO: 44))”.
For B6, the “Relative Activity of GLA Variants After No Challenge (NC)” value was “− (<0.5 relative activity to Rd7BB (SEQ ID NO: 44))”.

Test: HTP-analysis of supernatants pretreated with acid (MUGal hydrolysis)
Format: biochemical
Conditions: activity of the variant/activity of Rd7BB (SEQ ID NO: 44); challenge at pH 3.5
Method in brief: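 GLA variants were secreted from INVSc1 yeast grown 66-84 h at 30° C. in SD-Ura with 2% glucose; supernatants were mixed with McIlvaine buffer pH 3.3-4.3 and held at 37° C. for 1-3 h. Residual activity on MUGal at pH 4.8 was then measured by fluorescence.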
With B1 the “Relative Activity of GLA Variants After Challenge at pH 3.5” value (from here on “Relative Activity … at pH 3.5”) was “+ (>0.5 to 1.5 relative activity over Rd7BB (SEQ ID NO: 44))”.
For B2, the “Relative Activity … at pH 3.5” value was “− (<0.5 relative activity to Rd7BB (SEQ ID NO: 44))”.
In the case of B3, the “Relative Activity … at pH 3.5” value is reported as “+ (>0.5 to 1.5 relative activity over Rd7BB (SEQ ID NO: 44))”.
For B4, the “Relative Activity … at pH 3.5” value was “+ (>0.5 to 1.5 relative activity over Rd7BB (SEQ ID NO: 44))”.
For B5, the “Relative Activity … at pH 3.5” value was “+ (>0.5 to 1.5 relative activity over Rd7BB (SEQ ID NO: 44))”.
With B6 the “Relative Activity … at pH 3.5” value was “− (<0.5 relative activity to Rd7BB (SEQ ID NO: 44))”.

Test: HTP-analysis of supernatants pretreated with base (MUGal hydrolysis)
Format: biochemical
Conditions: activity of the variant/activity of Rd7BB (SEQ ID NO: 44); challenge at pH 7.5
Method in brief: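 GLA variants secreted from yeast INVSc1; culture supernatants pre-incubated with McIlvaine buffer pH 7.0–8.2 or 200 mM bicarbonate pH 9.1–9.7 at 37° C. for 1–18 h. Residual activity: MUGal (4 mM stock) hydrolysis at pH 4.3–4.8, 37° C., 30–180 min, carbonate quench; fluorescence Ex 355/Em 448 nm.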
For B1, the “Relative Activity of GLA Variants After Challenge at pH 7.5” value (“Relative Activity … at pH 7.5” for short) was “− (<0.5 relative activity to Rd7BB (SEQ ID NO: 44))”.
With B2 the “Relative Activity … at pH 7.5” value was “− (<0.5 relative activity to Rd7BB (SEQ ID NO: 44))”.
In the case of B3, the “Relative Activity … at pH 7.5” value is reported as “+ (>0.5 to 1.5 relative activity over Rd7BB (SEQ ID NO: 44))”.
For B4, the “Relative Activity … at pH 7.5” value was “+ (>0.5 to 1.5 relative activity over Rd7BB (SEQ ID NO: 44))”.
In the case of B5, the “Relative Activity … at pH 7.5” value is reported as “+ (>0.5 to 1.5 relative activity over Rd7BB (SEQ ID NO: 44))”.
With B6 the “Relative Activity … at pH 7.5” value was “− (<0.5 relative activity to Rd7BB (SEQ ID NO: 44))”.
